Results published in patent US20250019440A1 (Zymeworks, published 2025).
Changes are numbered by the printed parent chain. In names and notes the source's numbering stands.

Tests used:
CD3 on T cells [1] = biological target: T1, CD3 on T cells (Homo sapiens (Human), UniProt P07766 23-207; P04234 22-171; P09693 23-182); assay: cell-based or functional assay
PD-L1 on cells = PD-L1 on cells (UniProt Q9NZQ7 19-290, limits assumed); assay: cell-based or functional assay
CD3 on T cells [2] = biological target: T1, CD3 on T cells; assay: cell-based or functional assay; remark: listed apart in the source
Human PD-L1 = biological target: T2, Human PD-L1 (human, UniProt Q9NZQ7 19-239); assay: SPR, PD-L1 amine-coupled, variant as analyte
T2 construct: Amine-coupled to a CM5 chip for SPR; also called recombinant human PD-L1
T2 sequence (Q9NZQ7 19-239 limits assumed): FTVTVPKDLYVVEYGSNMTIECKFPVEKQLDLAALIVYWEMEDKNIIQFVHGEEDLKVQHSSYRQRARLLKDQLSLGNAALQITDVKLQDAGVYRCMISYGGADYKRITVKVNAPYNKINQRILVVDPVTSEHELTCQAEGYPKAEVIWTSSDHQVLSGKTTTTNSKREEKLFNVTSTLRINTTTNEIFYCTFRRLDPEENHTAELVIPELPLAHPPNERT

Human CD3 (recombinant) = Human CD3 (recombinant) (human); assay: SPR, CD3 amine-coupled, variant as analyte, 1:1 model
Human CD3 (recombinant) (human), sequence (chain, as listed by the source): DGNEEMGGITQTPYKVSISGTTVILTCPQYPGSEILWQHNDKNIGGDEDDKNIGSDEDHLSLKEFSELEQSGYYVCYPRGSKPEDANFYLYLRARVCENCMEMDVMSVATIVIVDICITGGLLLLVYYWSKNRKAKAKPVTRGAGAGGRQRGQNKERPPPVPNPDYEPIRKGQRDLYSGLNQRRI

T1 sequence (P07766 23-207 limits assumed, chain 1 of 3): as the sequence (chain, as listed by the source) above
T1 sequence (P04234 22-171 limits assumed, chain 2 of 3): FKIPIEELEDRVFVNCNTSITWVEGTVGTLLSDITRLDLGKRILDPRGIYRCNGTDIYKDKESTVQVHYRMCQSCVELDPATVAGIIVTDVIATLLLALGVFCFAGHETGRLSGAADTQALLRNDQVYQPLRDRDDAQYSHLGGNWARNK
T1 sequence (P09693 23-182 limits assumed, chain 3 of 3): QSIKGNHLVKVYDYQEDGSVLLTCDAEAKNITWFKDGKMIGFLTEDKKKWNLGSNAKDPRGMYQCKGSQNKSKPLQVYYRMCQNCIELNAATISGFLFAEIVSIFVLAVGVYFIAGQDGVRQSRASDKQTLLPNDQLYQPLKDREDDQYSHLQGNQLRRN
PD-L1 on cells, sequence (Q9NZQ7 19-290 limits assumed): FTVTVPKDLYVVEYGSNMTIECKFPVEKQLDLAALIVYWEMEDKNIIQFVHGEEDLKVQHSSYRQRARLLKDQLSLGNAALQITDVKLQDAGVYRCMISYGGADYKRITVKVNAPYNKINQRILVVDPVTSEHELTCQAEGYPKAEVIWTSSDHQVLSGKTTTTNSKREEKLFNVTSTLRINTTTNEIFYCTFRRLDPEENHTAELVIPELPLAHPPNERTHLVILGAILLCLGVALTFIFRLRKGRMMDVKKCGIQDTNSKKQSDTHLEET

B1: v39009 (bispecific) (other)
heavy chain 1 (H1): EVQLVESGGGLVQPGGSLRLSCAASGVTFNYYGMSWIRQAPGKGLEWVASITSSGGRIYYPDSVKGRFTISRENTQKTLYLQMNSLRAEDTAVYYCTLDGRDGWVAYWGQGTLVTVSSASTKGPSVFPLAPSSKSTSGGTAALGCLVKDYFPEPVTVSWNSGALTSGVHTFPAVLQSSGLYSLSSVVTVPSSSLGTQTYICNVNHKPSNTKVDKKVEPKSCDKTHTCPPCPAPEAAGGPSVFLFPPKPKDTLMISRTPEVTCVVVSVSHEDPEVKFNWYVDGVEVHNAKTKPREEQYNSTYRVVSVLTVLHQDWLNGKEYKCKVSNKALPAPIEKTISKAKGQPREPQVYVYPPSRDELTKNQVSLTCLVKGFYPSDIAVEWESNGQPENNYKTTPPVLDSDGSFALVSKLTVDKSRWQQGNVFSCSVMHEALHNHYTQKSLSLSPGGGGGSGQVQLVESGGGLVQPGGSLRLSCSVSGIDLSSNPMIWVRQAPGKGLQYIGIIDTDGSTYYADWAKGRFTISKDSTTVYLQINSPRAEDTAVYYCARRLHGSSNGYYDDLWGQGTLVTVSSGGGGSGGGGSGGGGSGGGGSDGQMTQSPSSVSASVGDRVTITCQASQSIYSYLSWYQQKPGQRPKLLIYKASTLASGVPSRFSGSGSGTDFTLTISSVQPEDFATYYCQQGYTVTNVDKNTFGGGTKVEIK
light chain (L1): NFMLTQPHSVSESPGKTVTISCKRNTGNIGSNYVNWYQQHEGSSPTTIIYRNDKRPDGVSDRFSGSIDRSSKSASLTISNLKTEDEADYFCQSYSSGFIFGGGTKLTVLGQPKAAPSVTLFPPSSEELQANKATLVCLISDFYPGAVTVAWKADSSPVKAGVETTTPSKQSNNKYAASSYLSLTPEQWKSHRSYSCQVTHEGSTVEKTVAPTECSGGGGSGDRPWNPPTFSPALLVVTEGDNATFTCSFSNTSESFVLNWYRMSPSNQTDALAAFPEDRSQPGQDARFRVTQLPNGRDFHMSVVRARRNDSGTYLCGAASLAPKAQIKESLRAELRVTE
heavy chain 2 (H2): QVQLVESGGGLVQPGGSLRLSCSVSGIDLSSNPMIWVRQAPGKGLQYIGIIDTDGSTYYADWAKGRFTISKDSTTVYLQINSPRAEDTAVYYCARRLHGSSNGYYDDLWGQGTLVTVSSGGGGSGGGGSGGGGSGGGGSDGQMTQSPSSVSASVGDRVTITCQASQSIYSYLSWYQQKPGQRPKLLIYKASTLASGVPSRFSGSGSGTDFTLTISSVQPEDFATYYCQQGYTVTNVDKNTFGGGTKVEIKAAEPKSSDKTHTCPPCPAPEAAGGPSVFLFPPKPKDTLMISRTPEVTCVVVSVSHEDPEVKFNWYVDGVEVHNAKTKPREEQYNSTYRVVSVLTVLHQDWLNGKEYKCKVSNKALPAPIEKTISKAKGQPREPQVYVLPPSRDELTKNQVSLLCLVKGFYPSDIAVEWESNGQPENNYLTWPPVLDSDGSFFLYSKLTVDKSRWQQGNVFSCSVMHEALHNHYTQKSLSLSPG
EC50 (read off the curve); hybrid PD-1/PD-L1 reporter gene assay, delta RLU, PD-1+ Jurkat T cells with SNU-620 cells, bottom right graph (CD3 on T cells [1]): ~50 pM | EC50 (read off the curve); hybrid PD-1/PD-L1 reporter gene assay, delta RLU, PD-1+ Jurkat T cells with SNU-620 cells, bottom right graph; v39009 varied in the presence of atezolizumab (CD3 on T cells [1]): ~40 pM

B2: v39004 - A132L (other)
heavy chain 1 (H1): B1 heavy chain 1 (H1)
light chain (L1): NFMLTQPHSVSESPGKTVTISCKRNTGNIGSNYVNWYQQHEGSSPTTIIYRNDKRPDGVSDRFSGSIDRSSKSASLTISNLKTEDEADYFCQSYSSGFIFGGGTKLTVLGQPKAAPSVTLFPPSSEELQANKATLVCLISDFYPGAVTVAWKADSSPVKAGVETTTPSKQSNNKYAASSYLSLTPEQWKSHRSYSCQVTHEGSTVEKTVAPTECS
heavy chain 2 (H2): QVQLVESGGGLVQPGGSLRLSCSVSGIDLSSNPMIWVRQAPGKGLQYIGIIDTDGSTYYADWAKGRFTISKDSTTVYLQINSPRAEDTAVYYCARRLHGSSNGYYDDLWGQGTLVTVSSGGGGSGGGGSGGGGSGGGGSDGQMTQSPSSVSASVGDRVTITCQASQSIYSYLSWYQQKPGQRPKLLIYKASTLASGVPSRFSGSGSGTDFTLTISSVQPEDFATYYCQQGYTVTNVDKNTFGGGTKVEIKAAEPKSSDKTHTCPPCPAPEAAGGPSVFLFPPKPKDTLMISRTPEVTCVVVSVSHEDPEVKFNWYVDGVEVHNAKTKPREEQYNSTYRVVSVLTVLHQDWLNGKEYKCKVSNKALPAPIEKTISKAKGQPREPQVYVLPPSRDELTKNQVSLLCLVKGFYPSDIAVEWESNGQPENNYLTWPPVLDSDGSFFLYSKLTVDKSRWQQGNVFSCSVMHEALHNHYTQKSLSLSPGGGGGSGDRPWNPPTFSPALLVVTEGDNATFTCSFSNTSESFVLNWYRMSPSNQTDKLAAFPEDRSQPGQDARFRVTQLPNGRDFHMSVVRARRNDSGTYLCGAISLAPKLQIKESLRAELRVTE
EC50 (read off the curve); hybrid PD-1/PD-L1 reporter gene assay, delta RLU, PD-1+ Jurkat T cells with SNU-620 cells, bottom graph; composite signal of CD3 engagement and PD-1:PD-L1 blockade (PD-L1 on cells): ~40 pM

B3: v39001 (bispecific) (other)
heavy chain 1 (H1): B1 heavy chain 1 (H1)
light chain (L1): B2 light chain (L1)
heavy chain 2 (H2): NPPTFSPALLVVTEGDNATFTCSFSNTSESFVLNWYRMSPSNQTDALAAFPEDRSQPGQDARFRVTQLPNGRDFHMSVVRARRNDSGTYLCGAASLAPKAQIKESLRAELRVTEGGGGSGQVQLVESGGGLVQPGGSLRLSCSVSGIDLSSNPMIWVRQAPGKGLQYIGIIDTDGSTYYADWAKGRFTISKDSTTVYLQINSPRAEDTAVYYCARRLHGSSNGYYDDLWGQGTLVTVSSGGGGSGGGGSGGGGSGGGGSDGQMTQSPSSVSASVGDRVTITCQASQSIYSYLSWYQQKPGQRPKLLIYKASTLASGVPSRFSGSGSGTDFTLTISSVQPEDFATYYCQQGYTVTNVDKNTFGGGTKVEIKAAEPKSSDKTHTCPPCPAPEAAGGPSVFLFPPKPKDTLMISRTPEVTCVVVSVSHEDPEVKFNWYVDGVEVHNAKTKPREEQYNSTYRVVSVLTVLHQDWLNGKEYKCKVSNKALPAPIEKTISKAKGQPREPQVYVLPPSRDELTKNQVSLLCLVKGFYPSDIAVEWESNGQPENNYLTWPPVLDSDGSFFLYSKLTVDKSRWQQGNVFSCSVMHEALHNHYTQKSLSLSPG
EC50 (read off the curve); hybrid PD-1/PD-L1 reporter gene assay, delta RLU, PD-1+ Jurkat T cells with SNU-620 cells, top right graph (CD3 on T cells [2]): ~50 pM

B4: v39000 - A132L (other)
heavy chain 1 (H1): B1 heavy chain 1 (H1)
light chain (L1): B2 light chain (L1)
heavy chain 2 (H2): B3 heavy chain 2 (H2) with A46K, A94I, A100L
EC50 (read off the curve); hybrid PD-1/PD-L1 reporter gene assay, delta RLU, PD-1+ Jurkat T cells with SNU-620 cells, top right graph; composite signal of CD3 engagement and PD-1:PD-L1 blockade (PD-L1 on cells): ~40 pM

B5: v39005 (bispecific) (other)
heavy chain 1 (H1): B1 heavy chain 1 (H1)
light chain (L1): B2 light chain (L1)
heavy chain 2 (H2): B2 heavy chain 2 (H2) with K539A, I587A, L593A
EC50 (read off the curve); hybrid PD-1/PD-L1 reporter gene assay, delta RLU, PD-1+ Jurkat T cells with SNU-620 cells, bottom graph (CD3 on T cells [2]): ~50 pM

B6: v38424 (other)
heavy 1: EVQLVESGGGLVQPGGSLRLSCAASGVTFNYYGMSWIRQAPGKGLEWVASITSSGGRIYYPDSVKGRFTISRENTQKTLYLQMNSLRAEDTAVYYCTLDGRDGWVAYWGQGTLVTVSSASTKGPSVFPLAPSSKSTSGGTAALGCLVKDYFPEPVTVSWNSGALTSGVHTFPAVLQSSGLYSLSSVVTVPSSSLGTQTYICNVNHKPSNTKVDKKVEPKSCDKTHTCPPCPAPEAAGGPSVFLFPPKPKDTLMISRTPEVTCVVVSVSHEDPEVKFNWYVDGVEVHNAKTKPREEQYNSTYRVVSVLTVLHQDWLNGKEYKCKVSNKALPAPIEKTISKAKGQPREPQVYVYPPSRDELTKNQVSLTCLVKGFYPSDIAVEWESNGQPENNYKTTPPVLDSDGSFALVSKLTVDKSRWQQGNVFSCSVMHEALHNHYTQKSLSLSPGGGGGSGDRPWNPPTFSPALLVVTEGDNATFTCSFSNTSESFVLNWYRMSPSNQTDALAAFPEDRSQPGQDARFRVTQLPNGRDFHMSVVRARRNDSGTYLCGAASLAPKAQIKESLRAELRVTE
light: B2 light chain (L1)
heavy 2: B1 heavy chain 2 (H2)
notes: CD3 Fab x Cldn18.2 scFv Fc, attenuated (KO) PD-1 attached to HC1 (C-term)
binding result (Human PD-L1): no binding | Kd (Human CD3 (recombinant)): 37000 pM
